Measured values taken from US20130183688A1 (BRIGHAM AND WOMEN S HOSPITAL, published 2013).

Key:
[1] = target: T1, murine galectin-9 (regular isoform), expressed in transiently transfected CHO cells (mouse, UniProt O08573 1-353); assay: intracellular staining of galectin-9 transfected CHO cells, flow cytometry
T1 construct: Expressed from pIRES2-EGFP in CHO cells; not found on the cell surface, detected by intracellular staining of fixed cells; also called regular galectin-9; wt galectin-9

[2] = target: T2, galectin-9 of TK-1 cells (biotinylated membrane associated 40 to 60 kD band, 35 kD after PNGase F) (UniProt O08573-2 1-322, limits assumed, surface biotinylated with NHS-LC-Biotin); assay: pull-down from lysate of surface biotinylated TK-1 cells, Protein G-agarose, Western blot
T2 construct: Endogenous protein pulled down from cell lysate; also called 35 kD protein
Procedure: FIG. 10A TK-1 cells express the highest level of TIM-3 ligand(s). Three T cell lines, TK-1, S49.1G.3PHA 100/0, and BW1547.G.1.4, were stained by biotinylated sTIM-3-Ig (0.4 mg/ml) at 1:20 (top row graphs) and 1:50 dilutions (center row graphs), and detected by anti-human IgG-Fc-PE for the TIM-3 ligand expression. All T cell lines are stained positively by TIM-3 fusions FACS analysis, among which up to 90% of TK-1 were positively stained by both flTIM-3-Ig and sTIM-3-Ig (bottom row graphs). […] Extracellular membrane associated proteins on live TK-1 cells were biotinylated by NHS-LC-Biotin in PBS pH7.9 buffer at room temperature. Reaction was stopped by DMEM medium after 1 hour incubation. Cell lysate from the biotinylated TK-1 cells was used in pull-down experiment by incubating with 5 μg flTIM-3-Ig, sTIM-3-Ig, TIM-2-Ig, and hIgG respectively plus Protein G-agarose beads at 4° C. Protein samples eluted from beads were treated with or without PNGase F to remove N-linked sugar chains, and applied to SDS-PAGE and Western blot. Only signals from biotinylated membrane associated proteins bound to avidin conjugated peroxidase and were detected by chemiluminescent signal. […]

[3] = target: T3, recombinant galectin-9 (r-galectin-9) (mouse, UniProt O08573 1-353); assay: pull-down with protein G beads, SDS-PAGE, Coomassie blue
T3 construct: Any vector-derived tag is not described; also called purified recombinant galectin-9
Source text: (§1) FIG. 11A Both regular and long isoforms for galectin-9 (galectin-9 and galectin-9-L respectively) are able to bind to TIM-3. Protein sequences between two galectin-9 isoforms are identical except a 31 amino acid peptide insert in the hinge region of galectin-9-L. Murine cDNAs for isoforms of galectin-9 from TK-1 cells were subcloned into a eukaryotic bicistronic expression vector pIRES2-EGFP. The plasmids were transiently transfected into CHO cells respectively. Cells were fixed for intracellular staining with flTIM-3-Ig (top row graphs), sTIM-3-Ig (center row graphs), and hIgG (bottom row graphs) and detected by anti-human IgG-Fc-PE 48 hours after transfection. EGFP positive signals in FACS analyses indicated transfected cells. The anti-human IgG-Fc-PE was used to detect the binding from Ig fusions or hIgG. FIG. 11B Murine cDNAs for galectin-9 (first column graphs), -4 (second column graphs), -3 (third column graphs), and -1 (fourth column graphs) were subcloned into pIRES2-EGFP. The plasmids and the empty vector (fifth column graphs) that only produces EGFP were transiently transfected into CHO for intracellular staining by s-TIM-3-Ig respectively. The anti-human IgG-Fc-PE was used to detect sTIM-3-Ig binding. FIG. 11C Galectin-9 cDNA was subcloned into prokaryotic expression vector pTrcHis 2B. […]

[4] = target: T4, murine galectin-9 long isoform (galectin-9-L), expressed in transiently transfected CHO cells (mouse, UniProt O08573 1-353); assay: intracellular staining of transfected CHO cells, anti-human IgG-Fc-PE, flow cytometry
T4 construct: Expressed from pIRES2-EGFP in CHO cells; intracellular staining of fixed cells
Source text: as §1, with “pIRES2-EGFP.” for “pIRES2-EGFP. The plasmids and the empty vector (fifth column graphs) that only produces EGFP were transiently transfected into CHO for intracellular staining by s-TIM-3-Ig respectively. The anti-human IgG-Fc-PE was used to detect sTIM-3-Ig binding. FIG. 11C Galectin-9 cDNA was subcloned into prokaryotic expression vector pTrcHis 2B.”
To confirm the interaction between galectin-9 and TIM-3, both galectin-9 isoform cDNAs were subcloned into an expression vector that bicistronically expresses EGFP protein. […] In transient transfection, expression of galectin-9 was not detected on the cell surface. […]

[5] = target: T5, galectin-9 R64A and R238A (double mutation in both CRD domains), expressed in CHO cells (mouse, UniProt O08573 1-353); assay: intracellular staining of transfected CHO cells by sTIM-3-Ig, flow cytometry
T5 construct: Intracellular staining; also called double mutant galectin-9
Procedure: (§2) FIGS. 12A-12C show galectin-9 recognizes the β-galactoside bond in oligosaccharide chains of TIM-3. FIG. 12A Galectin-9 expression plasmid was transiently transfected into CHO cells and fixed for intracellular staining by sTIM-3-Ig. Incubation buffers with different concentrations from 0 to 100 mM of α-lactose were used in the experiments. Bars in the histograph represent percentage of double positive cell population for EGFP and sTIM-3-Ig staining in presence of different concentration of a-lactose. FIG. 12B Two μg of r-galectin-9 was mixed with 4 μg sTIM-3-Ig in presence of different concentration of a-lactose from 0 to 100 mM in a pull-down experiment. Elutes from protein G beads were applied to SDS-PAGE and stained by Coomassie blue. A band at 50 kD represents sTIM-3-Ig, and the one at 38 kD stands for r-galectin-9. FIG. 12C CRD domains in galectin-9 are required for interaction with TIM-3. Constructs with mutation of R64A in N-terminal CRD domain (second column graphs), R238A in C-terminal CRD domain (third column graphs), or both (fourth column graphs) were generated and subcloned into expression vector pIRES2-EGFP. CHO cells were transiently transfected by wt (first column graphs) and mutant galection-9 expression plasmids (second through fourth column graphs) for intracellular staining by sTIM-3-Ig. EGFP and anti-human IgG-Fc-PE double positive standard for interaction between galectin-9 and sTIM-3-Ig.

[6] = target: T6, galectin-9 R64A (mutation in N-terminal CRD domain), expressed in CHO cells (mouse, UniProt O08573 1-353); assay: as above
T6 construct: Intracellular staining; also called mutant galectin-9 N-terminal CRD
Procedure: as §2

[7] = target: T7, galectin-9 R238A (mutation in C-terminal CRD domain), expressed in CHO cells (mouse, UniProt O08573 1-353); assay: as above
T7 construct: Intracellular staining; also called mutant galectin-9 C-terminal CRD
Procedure: as §2

T4 sequence (O08573 whole entry, canonical isoform): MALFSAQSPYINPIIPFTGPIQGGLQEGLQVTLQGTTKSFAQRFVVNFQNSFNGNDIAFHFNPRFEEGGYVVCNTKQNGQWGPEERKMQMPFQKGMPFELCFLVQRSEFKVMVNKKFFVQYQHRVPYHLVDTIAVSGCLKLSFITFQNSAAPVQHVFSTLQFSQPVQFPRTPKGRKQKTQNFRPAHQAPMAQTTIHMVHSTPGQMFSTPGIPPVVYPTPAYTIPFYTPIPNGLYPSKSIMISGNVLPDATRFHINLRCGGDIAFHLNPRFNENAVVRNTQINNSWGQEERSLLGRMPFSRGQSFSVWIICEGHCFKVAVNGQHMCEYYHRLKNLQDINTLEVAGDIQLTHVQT
T2 sequence (O08573 other isoform, or with tags, fused parts or gaps limits assumed): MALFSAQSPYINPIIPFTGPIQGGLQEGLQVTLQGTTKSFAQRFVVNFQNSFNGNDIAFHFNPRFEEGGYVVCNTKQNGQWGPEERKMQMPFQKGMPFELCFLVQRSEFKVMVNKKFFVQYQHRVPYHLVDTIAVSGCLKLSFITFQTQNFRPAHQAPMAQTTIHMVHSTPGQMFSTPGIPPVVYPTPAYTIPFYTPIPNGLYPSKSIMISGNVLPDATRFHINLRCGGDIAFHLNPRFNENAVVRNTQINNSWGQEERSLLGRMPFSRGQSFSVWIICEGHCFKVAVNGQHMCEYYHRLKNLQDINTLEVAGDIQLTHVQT
T7 sequence (O08573 other isoform, or with tags, fused parts or gaps R238A R238A): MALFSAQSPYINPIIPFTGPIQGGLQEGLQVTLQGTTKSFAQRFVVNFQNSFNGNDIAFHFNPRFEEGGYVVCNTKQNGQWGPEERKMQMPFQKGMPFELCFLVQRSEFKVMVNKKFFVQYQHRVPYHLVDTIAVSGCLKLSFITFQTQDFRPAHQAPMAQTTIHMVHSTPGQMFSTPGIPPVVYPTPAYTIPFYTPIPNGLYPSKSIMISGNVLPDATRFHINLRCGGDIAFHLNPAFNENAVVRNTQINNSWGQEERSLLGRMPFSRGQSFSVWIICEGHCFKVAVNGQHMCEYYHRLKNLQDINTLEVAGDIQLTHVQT
T1 sequence (O08573 other isoform, or with tags, fused parts or gaps): as the sequence (O08573 other isoform, or with tags, fused parts or gaps R238A R238A) above, with A238R counted along it
T3 sequence (O08573 other isoform, or with tags, fused parts or gaps limits assumed): as the sequence (O08573 other isoform, or with tags, fused parts or gaps R238A R238A) above, with A238R counted along it
T6 sequence (O08573 other isoform, or with tags, fused parts or gaps R64A R64A): as the sequence (O08573 other isoform, or with tags, fused parts or gaps R238A R238A) above, with R64A, A238R counted along it
T5 sequence (O08573 other isoform, or with tags, fused parts or gaps R64A R238A R64A R238A): as the sequence (O08573 other isoform, or with tags, fused parts or gaps R238A R238A) above, with R64A counted along it

binding result [1]	binding result [2]	binding result [3]	binding result [4]	binding result [5]	binding result [6]	binding result [7]	Binder
no binding	no binding (tested: 5 µg)	no binding					TIM-2-Ig (Fc fusion, UniProt Q8R183 22-231, looked up, Control Ig fusion; also called TIM-2 Ig fusion; not shown: Ig part of the fusion not described) HTAVQGLAGHPVTLPCIYSTHLGGIVPMCWGLGECRHSYCIRSLIWTNGYTVTHQRNSLYQLKGNISEGNVSLTIENTVVGDGGPYCCVVEIPGAFHFVDYMLEVKPEISTSPPTRPTATGRPTTISTRSTHVPTSTRVSTSTSPTPAHTETYKPEATTFYPDQTTAEVTETLPDTPADWHNTVTSSDDPWDDNTEVIPPQKPQKNLNKG
			binds	no binding	binds	binds	soluble Tim-3-Ig fusion protein (s-Tim-3-Ig) (Fc fusion, biotinylated in some cell staining experiments, not shown: human IgG1 Fc tail) LEDGYKVEVGKNAYLPCSYTLPTSGTLVPMCWGKGFCPWSQCTNELLRTDERNVTYQKSSRYQLKGDLNKGDVSLIIKNVTLDDHGTYCCRIQFPGLMNDKKLELKLDIKA
			binds				full-length Tim-3-Ig fusion protein (ex-Tim-3-Ig) (Fc fusion, biotinylated in some cell staining experiments, expressed in NS.1 cells; also called flTIM-3-Ig; flTim-3-Ig; not shown: human IgG1 Fc tail) RSLEDGYKVEVGKNAYLPCSYTLPTSGTLVPMCWGKGFCPWSQCTNELLRTDERNVTYQKSSRYQLKGDLNKGDVSLIIKNVTLDDHGTYCCRIQFPGLMNDKKLELKLDIKAAKVTPAQTAHGDSTTASPRTLTTERNGSETQTLVTLHNNNGTKISTWADEIKDSGETIRTA
